Results as given in US20210380675A1 (Kyowa Kirin, published 2021).
Residue numbers refer to the chain shown, from its start.

How the values were obtained:
[1] = molecular target: T1, cynomolgus IL-36α, truncated (cynomolgus macaque (Macaca fascicularis), UniProt Q9UHA7 14-158 (human entry), limits assumed); assay: ELISA binding screen and HaCaT assay
T1 construct: Untagged after removal of the His-SUMO tag; also called cynomolgus IL-36 alpha; cyIL-36alpha
T1 chain: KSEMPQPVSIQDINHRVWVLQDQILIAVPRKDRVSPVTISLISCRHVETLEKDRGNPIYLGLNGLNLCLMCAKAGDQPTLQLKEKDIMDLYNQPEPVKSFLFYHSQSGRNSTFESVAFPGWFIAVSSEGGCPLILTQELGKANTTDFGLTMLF

[2] = molecular target: T2, cynomolgus IL-36γ, truncated (cynomolgus macaque (Macaca fascicularis), UniProt Q9NZH8 18-167 (human entry), limits assumed); assay: ELISA binding screen and HaCaT assay
T2 construct: Untagged after removal of the His-SUMO tag; also called cynomolgus IL-36 gamma; cyIL-36gamma
T2 chain: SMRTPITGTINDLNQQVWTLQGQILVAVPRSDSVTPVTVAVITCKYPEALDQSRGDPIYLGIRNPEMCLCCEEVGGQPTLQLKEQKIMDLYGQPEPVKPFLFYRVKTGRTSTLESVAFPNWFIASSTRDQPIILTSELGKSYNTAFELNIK

[3] = molecular target: T3, human IL-36α(R12), truncated (human, UniProt Q9UHA7 6-158); assay: cell-based or functional assay
T3 chain: T1 chain with S2I, E3D, M4T, P7R, V8G, I24T, V34M, S40A, A74V

human IL-36γ, truncated [4] = molecular target: T4, human IL-36γ, truncated (human, UniProt Q9NZH8 18-169); assay: SPR, Biacore T200, antibody on chip, IL-36 as analyte, 1:1 Langmuir fit
T4 construct: Bought from R&D Systems (cat 6835-IL); also called human IL-36 gamma; hIL-36gamma
T4 sequence: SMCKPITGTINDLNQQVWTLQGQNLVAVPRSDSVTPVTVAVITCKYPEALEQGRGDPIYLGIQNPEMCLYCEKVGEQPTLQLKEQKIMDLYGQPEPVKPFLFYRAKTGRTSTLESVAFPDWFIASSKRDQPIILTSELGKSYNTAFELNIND
Procedure, shortened: (§1)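 Single-cycle kinetics: mouse/human chimeric or mouse antibodies captured (~200 RU) via anti-human or anti-mouse Fc on CM5, then increasing IL-36 concentrations injected, 300 s association, 1200 s dissociation. Alternatively ~2000 RU antibody amine-coupled, analyte 30 μL/min for 420 s, 3600 s dissociation, 25° C; double-referenced sensorgrams.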

[5] = molecular target: T3, human IL-36α(R12), truncated; assay: as above
Procedure, shortened: as §1

human IL-36γ, truncated [6] = molecular target: T4, human IL-36γ, truncated; assay: cell-based or functional assay

binding result [1]: binds
binding result [2]: binds
IC50 of IL-8 secretion, HaCaT, 10 nM human IL-36α, FIG. 1A [3]: 49.5 nM
Kd (human IL-36γ, truncated [4]): 1.08 nM
koff (human IL-36γ, truncated [4]): 0.000676 s⁻¹
kon (human IL-36γ, truncated [4]): 625000 M⁻¹ s⁻¹
Kd [5]: 18 nM
koff [5]: 0.00184 s⁻¹
kon [5]: 102000 M⁻¹ s⁻¹
IC50 of IL-8 secretion, HaCaT, 10 nM human IL-36γ, FIG. 1D (human IL-36γ, truncated [6]): 5.12 nM
B1: 144D666C (antibody, V domains shown)
VH: EVQLQQSGAELVKPGASVKLTCTASGFNIKDTYIYWVKQRPAQGLEWIGRIDPANAYTKFDPKFQGKATLTADTSSNTAYLQLSSLTSEDTAVYYCTRFHWYGSSFFFDYWGQGTTLTVSS
VL: QAVVTQESALTTSPGETVTLTCRSSTGAVTTSNYANWVQEKPDHLFTGLIGGTDNRPPGVPARFSGSLIGDKAALTITGAQTEDEAIYFCALWYSNLWVFGGGTKLTVL
notes: Mouse monoclonal from hybridoma; mouse IgG heavy and lambda light chain
